For 116 sequences, protein stability index results are on record in the supplement of paper PMC10724198.

± gives the standard deviation of the averaged measurements.
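Note: PSI is a weighted mean of sequencing reads over stability bins, variants kept only with over 10 reads, mCherry proximal and sfGFP distal, peptide attached via GGGS linker.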

The data set concerns Saccharomyces cerevisiae. The experiment in a line: protein stability index of tFT-peptide fusion (C-terminal peptide) (PSI (0-1 scale)); higher = more stable (slower turnover). The conditions noted are these: genetic background: wild type; temperature: 30 C.
Sequence GYRKREMRGELQ showed a protein stability index of 0.678 ± 0.038. As to GYSYTEFPPEAV, the protein stability index amounted to 0.708 ± 0.08. HAPFPPLLVSSL showed a protein stability index of 0.625 ± 0.022. HATFLPGLLTIS had a protein stability index of 0.566 ± 0.026. For HDPPPPPPLPRP, the protein stability index is 0.626 ± 0.024. The result for HDSAGVCFHYWL reads 0.644 ± 0.011. As for HEGPGTTEFLGL, the figure is 0.717 ± 0.059; as for HFAMCSTTFVIT, 0.618 ± 0.029. HFLVGPLSPLLS: the protein stability index amounted to 0.662 ± 0.019. In turn, HGFSRFAACNGV returned a protein stability index of 0.666 ± 0.0071. HGLDPRRGPSGA came in with a protein stability index of 0.68426 ± 0.00044. For HGQGWRPTYLSI, the protein stability index amounted to 0.796 ± 0.1. Consider HGRGVEYGVCDN, for which the protein stability index stood at 0.6776 ± 0.0066. Take HIAKQSSRRRRR: the protein stability index was found to be 0.68 ± 0.029. HICFPALKPGGA returned a protein stability index of 0.6401 ± 0.0039.

Consider HIWQEADGMDTE, for which the protein stability index stood at 0.679 ± 0.022. Regarding HKAPLLQLTADM, the protein stability index is 0.662 ± 0.028.

For the sequence HKGKELTNNAML, the protein stability index is 0.678 ± 0.039. HKHDAVIIGREC registered a protein stability index of 0.7024 ± 0.0042. Sequence HKKATRPPTGGN showed a protein stability index of 0.604 ± 0.052. In turn, HLAHVCYEVPTY came in with a protein stability index of 0.568 ± 0.04. HLFSLGSCLSDP returned a protein stability index of 0.731 ± 0.12.

In turn, HLGVLDSFLAEG came in with a protein stability index of 0.629 ± 0.028. As for HLIVPESVVHDL, the figure is 0.747 ± 0.18; as for HLLGYSLRREFL, 0.67 ± 0.054. HLPPSRPSFSAP showed a protein stability index of 0.747 ± 0.015. For the sequence HLPSHPSLPPAP, the protein stability index was 0.707 ± 0.029. In the case of HLSHVLLGITFV, the protein stability index is 0.603 ± 0.026.

Regarding HLSPAPPPPSAP, the protein stability index stood at 0.706 ± 0.11.

Consider HLTCVVGRDLGI, for which the protein stability index was determined as 0.606 ± 0.015. Take HMHTSKTFSNGP: the protein stability index came to 0.738 ± 0.093. The result for HNSTKTQSLRGT reads 0.719 ± 0.016; that for HPPHPPPLPGSP, 0.802 ± 0.076; that for HPPHPPPSPCPP, 0.733 ± 0.034. In turn, HPPPARSPPSLP gave a protein stability index of 0.741 ± 0.041. As for HPPPFRSIPEPQ, the figure is 0.678 ± 0.019. For HPPVFFSPCGIL, the protein stability index turned out to be 0.634 ± 0.033. In turn, HPSARLPENRTP came in with a protein stability index of 0.677 ± 0.038.

HPSPLHLPSPPP returned a protein stability index of 0.675 ± 0.0076. HPTFARIPPIPP displayed a protein stability index of 0.525 ± 0.0088.

HPTHTPPSTHRD registered a protein stability index of 0.7316 ± 0.0053. In the case of HPTLPPHPPPHP, the protein stability index came to 0.768 ± 0.036. As for HPTRHPPTPPCY, the protein stability index amounted to 0.704 ± 0.018. As to HQCVNLNTIKWV, the protein stability index was determined as 0.634 ± 0.021.

HQVSLVLGGYLL showed a protein stability index of 0.702 ± 0.0099. HRCQRGLIARPR came in with a protein stability index of 0.665 ± 0.016. HRGAVRGGSEIW returned a protein stability index of 0.729 ± 0.033. Consider HRTKRPKTKRPP, for which the protein stability index amounted to 0.628 ± 0.036. The sequence HRYRWPGLNSRL yielded a protein stability index of 0.837 ± 0.12.

The sequence HSFNITSESQKI gave a protein stability index of 0.653 ± 0.0066.

Sequence HSLPPLRPYPSP registered a protein stability index of 0.7553 ± 0.00076. Sequence HSLRLPPSVHFP returned a protein stability index of 0.6797 ± 0.004. The result for HSLRPPPPPAPT reads 0.7146 ± 0.0045; that for HSNGADTFSEGE, 0.648 ± 0.033; that for HSPILQPSLPHP, 0.71 ± 0.022. As for HSPPRPPFHPRF, the figure is 0.70091 ± 0.0004. On to HSRPAAPCRSPL, for which the protein stability index worked out at 0.679 ± 0.013. Sequence HSRRCDGLPGWV had a protein stability index of 0.671 ± 0.03. For HSTGPRPKLGCQ, the protein stability index is 0.827 ± 0.019. The result for HSYMFIRNTIRI reads 0.6281 ± 0.0031. The result for HSYSPRSLLVDP reads 0.727 ± 0.039; that for HTGKAATRKVIK, 0.634 ± 0.024; that for HTKNCTRAVSDR, 0.673 ± 0.085. As for HTPPLPPPPDPT, the figure is 0.723 ± 0.061; as for HTPPPPRHPYKH, 0.741 ± 0.055; as for HVGEVESGGMGG, 0.707 ± 0.03. The sequence HVLFPLHPNRIP yielded a protein stability index of 0.6609 ± 0.0016.

In turn, HVMLPFTGIGKF showed a protein stability index of 0.672 ± 0.06. Sequence HVNGQWEANRRT returned a protein stability index of 0.697 ± 0.048.

Take HVPQPNTVCPHL: the protein stability index came out at 0.754 ± 0.033. As for HVTRGMTHLTLF, the figure is 0.635 ± 0.036; as for HVTSTRGARRPS, 0.715 ± 0.019. As for HVVSSGFLVGLG, the protein stability index worked out at 0.671 ± 0.039. As for HWSMRVNRTEGG, the figure is 0.663 ± 0.055; as for HWYFARTSTVSC, 0.5505 ± 0.0015; as for HYLYSLLVLPPL, 0.658 ± 0.046. The sequence IAATTVVRPAFC had a protein stability index of 0.66 ± 0.0083. As for IACPPSVIFSPH, the protein stability index is 0.713 ± 0.058. As for IAEFRRDKIVKR, the figure is 0.706 ± 0.07; as for IAFFFLHIPPAF, 0.569 ± 0.076. As for IAGKAIKNMTRR, the protein stability index amounted to 0.676 ± 0.052. Take IAGRPSSGFPLL: the protein stability index stood at 0.686 ± 0.066. As for IALVFCPMNGRI, the figure is 0.686 ± 0.014. In turn, IARENLNRSRFS gave a protein stability index of 0.6602 ± 0.0056.

In turn, IATDGARCACDP had a protein stability index of 0.688 ± 0.022.

As for IATMSVAGGPRL, the protein stability index turned out to be 0.677 ± 0.015.

Sequence ICGAGPKCCCSV displayed a protein stability index of 0.635 ± 0.051. The result for ICIGRDISNQSC reads 0.703 ± 0.021; that for ICLPPVSDVLIR, 0.676 ± 0.0084. As for ICVSGALMARAL, the protein stability index turned out to be 0.6798 ± 0.0036. IDFISSVLSYLS registered a protein stability index of 0.663 ± 0.013. The result for IDKRWVKKGGDK reads 0.64 ± 0.071; that for IDLGWSRWGALA, 0.662 ± 0.086; that for IDPPSLCTPPPP, 0.635 ± 0.034.

IDSKSPTHPLHQ showed a protein stability index of 0.71 ± 0.059. Turning to IDSSLERVRQHS, the protein stability index stood at 0.677 ± 0.058.

For IDYCWLPDGYQM, the protein stability index amounted to 0.683 ± 0.068.

Consider IECKKIDKKIKE, for which the protein stability index amounted to 0.688 ± 0.035. As to IEIGTEEGKCTT, the protein stability index amounted to 0.707 ± 0.053.

IEKKKIDNKVKS: the protein stability index came out at 0.712 ± 0.079. The sequence IEKYRKNKKTGK came in with a protein stability index of 0.677 ± 0.016.

IENKKEKKIMIE gave a protein stability index of 0.6652 ± 0.0037. Turning to IETQKNNKLRRL, the protein stability index is 0.699 ± 0.015. The result for IEVSRRDLRIHL reads 0.6949 ± 0.0032; that for IEWGPITTLTQT, 0.718 ± 0.02. Consider IFFFFHSPYFFS, for which the protein stability index turned out to be 0.68 ± 0.018. In the case of IFGCPEFFCFLL, the protein stability index came out at 0.696 ± 0.061.

Regarding IFLLLHSPSSAS, the protein stability index amounted to 0.697 ± 0.014. In turn, IFPVFHPPFVVI came in with a protein stability index of 0.557 ± 0.05.

Consider IFWGFSFRGWGC, for which the protein stability index stood at 0.683 ± 0.015. IFYTHRSLSGNL had a protein stability index of 0.659 ± 0.036. Consider IGCSELSGLGGY, for which the protein stability index was 0.769 ± 0.12. IGCTRSREESRE showed a protein stability index of 0.689 ± 0.013.

IGFLGYTRSIRN came in with a protein stability index of 0.617 ± 0.096. As for IGGFGVRIYFGG, the figure is 0.627 ± 0.056; as for IGLCGWVSGAAT, 0.7274 ± 0.0069.
